Measured values taken from patent US20240124553A1.

Key:
Test in all cases: flow cytometry, transfected 293T cells
[1] = target: CHIKV E2-E1 envelope glycoproteins (strain S27), E2 mutant C105A (chikungunya virus strain S27) (UniProt Q8JUX5)
[2] = target: CHIKV E2-E1 envelope glycoproteins (strain S27), E2 mutant H127A (chikungunya virus strain S27) (UniProt Q8JUX5)
[3] = target: CHIKV E2-E1 envelope glycoproteins (strain S27), E2 mutant H73A (chikungunya virus strain S27) (UniProt Q8JUX5)
[4] = target: CHIKV E2-E1 envelope glycoproteins (strain S27), E2 mutant I56A (chikungunya virus strain S27) (UniProt Q8JUX5)
[5] = target: CHIKV E2-E1 envelope glycoproteins (strain S27), E2 mutant A81S (chikungunya virus strain S27) (UniProt Q8JUX5)
[6] = target: CHIKV E2-E1 envelope glycoproteins (strain S27), E2 mutant T112A (chikungunya virus strain S27) (UniProt Q8JUX5)
[7] = target: CHIKV E2-E1 envelope glycoproteins (strain S27), E2 mutant Y69A (chikungunya virus strain S27) (UniProt Q8JUX5)
[8] = target: CHIKV E2-E1 envelope glycoproteins (strain S27), E2 mutant S124A (chikungunya virus strain S27) (UniProt Q8JUX5)
[9] = target: CHIKV E2-E1 envelope glycoproteins (strain S27), E2 mutant D71A (chikungunya virus strain S27) (UniProt Q8JUX5)
[10] = target: CHIKV E2-E1 envelope glycoproteins (strain S27), E2 mutant A76S (chikungunya virus strain S27) (UniProt Q8JUX5)
[11] = target: CHIKV E2-E1 envelope glycoproteins (strain S27), E2 mutant H130A (chikungunya virus strain S27) (UniProt Q8JUX5)
[12] = target: CHIKV E2-E1 envelope glycoproteins (strain S27), E2 mutant I101A (chikungunya virus strain S27) (UniProt Q8JUX5)
[13] = target: CHIKV E2-E1 envelope glycoproteins (strain S27), E2 mutant T94A (chikungunya virus strain S27) (UniProt Q8JUX5)
[14] = target: CHIKV E2-E1 envelope glycoproteins (strain S27), E2 mutant F115A (chikungunya virus strain S27) (UniProt Q8JUX5)
[15] = target: CHIKV E2-E1 envelope glycoproteins (strain S27), E2 mutant A103S (chikungunya virus strain S27) (UniProt Q8JUX5)
[16] = target: CHIKV E2-E1 envelope glycoproteins (strain S27), E2 mutant Q49A (chikungunya virus strain S27) (UniProt Q8JUX5)
[17] = target: CHIKV E2-E1 envelope glycoproteins (strain S27), E2 mutant T92A (chikungunya virus strain S27) (UniProt Q8JUX5)
[18] = target: CHIKV E2-E1 envelope glycoproteins (strain S27), E2 mutant T87A (chikungunya virus strain S27) (UniProt Q8JUX5)
[19] = target: CHIKV E2-E1 envelope glycoproteins (strain S27), E2 mutant D60A (chikungunya virus strain S27) (UniProt Q8JUX5)
[20] = target: CHIKV E2-E1 envelope glycoproteins (strain S27), E2 mutant S61A (chikungunya virus strain S27) (UniProt Q8JUX5)
[21] = target: CHIKV E2-E1 envelope glycoproteins (strain S27), E2 mutant G79A (chikungunya virus strain S27) (UniProt Q8JUX5)
[22] = target: CHIKV E2-E1 envelope glycoproteins (strain S27), E2 mutant C125A (chikungunya virus strain S27) (UniProt Q8JUX5)
[23] = target: CHIKV E2-E1 envelope glycoproteins (strain S27), E2 mutant R119A (chikungunya virus strain S27) (UniProt Q8JUX5)
[24] = target: CHIKV E2-E1 envelope glycoproteins (strain S27), E2 mutant L34A (chikungunya virus strain S27) (UniProt Q8JUX5)
[25] = target: CHIKV E2-E1 envelope glycoproteins (strain S27), E2 mutant K120A (chikungunya virus strain S27) (UniProt Q8JUX5)
[26] = target: CHIKV E2-E1 envelope glycoproteins (strain S27), E2 mutant L83A (chikungunya virus strain S27) (UniProt Q8JUX5)
[27] = target: CHIKV E2-E1 envelope glycoproteins (strain S27), E2 mutant A89S (chikungunya virus strain S27) (UniProt Q8JUX5)
[28] = target: CHIKV E2-E1 envelope glycoproteins (strain S27), E2 mutant A78S (chikungunya virus strain S27) (UniProt Q8JUX5)
[29] = target: CHIKV E2-E1 envelope glycoproteins (strain S27), E2 mutant P133A (chikungunya virus strain S27) (UniProt Q8JUX5)
[30] = target: CHIKV E2-E1 envelope glycoproteins (strain S27), E2 mutant D63A (chikungunya virus strain S27) (UniProt Q8JUX5)
[31] = target: CHIKV E2-E1 envelope glycoproteins (strain S27), E2 mutant L52A (chikungunya virus strain S27) (UniProt Q8JUX5)
[32] = target: CHIKV E2-E1 envelope glycoproteins (strain S27), E2 mutant Q53A (chikungunya virus strain S27) (UniProt Q8JUX5)
[33] = target: CHIKV E2-E1 envelope glycoproteins (strain S27), E2 mutant A33S (chikungunya virus strain S27) (UniProt Q8JUX5)

Row | Substance | Binding Reactivity (% WT) [1] [% WT] | Binding Reactivity (% WT) [2] [% WT] | Binding Reactivity (% WT) [3] [% WT] | Binding Reactivity (% WT) [4] [% WT] | Binding Reactivity (% WT) [5] [% WT] | Binding Reactivity (% WT) [6] [% WT] | Binding Reactivity (% WT) [7] [% WT] | Binding Reactivity (% WT) [8] [% WT] | Binding Reactivity (% WT) [9] [% WT] | Binding Reactivity (% WT) [10] [% WT] | Binding Reactivity (% WT) [11] [% WT] | Binding Reactivity (% WT) [12] [% WT] | Binding Reactivity (% WT) [13] [% WT] | Binding Reactivity (% WT) [14] [% WT] | Binding Reactivity (% WT) [15] [% WT] | Binding Reactivity (% WT) [16] [% WT] | Binding Reactivity (% WT) [17] [% WT] | Binding Reactivity (% WT) [18] [% WT] | Binding Reactivity (% WT) [19] [% WT] | Binding Reactivity (% WT) [20] [% WT] | also measured
1 | CHIKV mAb IM-CKV063 (antibody) | 0.4 | 96.1 | 84.2 | 111 | 93 | 43.1 | 60.7 | 97.8 | 98.9 | 107 | 91 | 19.8 | 95.5 | 3.6 | 65.8 | 55.4 | 84.5 | 18.8 | 64.8 | 100 | Binding Reactivity (% WT) [21]: 86.9 % WT; Binding Reactivity (% WT) [22]: 0.5 % WT; Binding Reactivity (% WT) [23]: 72 % WT; Binding Reactivity (% WT) [24]: 29.4 % WT; Binding Reactivity (% WT) [25]: 13.1 % WT; Binding Reactivity (% WT) [26]: 18.7 % WT; Binding Reactivity (% WT) [27]: 84 % WT; Binding Reactivity (% WT) [28]: 99.1 % WT; Binding Reactivity (% WT) [29]: 73.9 % WT; Binding Reactivity (% WT) [30]: 65.8 % WT; Binding Reactivity (% WT) [31]: 107 % WT; Binding Reactivity (% WT) [32]: 37.3 % WT; Binding Reactivity (% WT) [33]: 99.4 % WT
2 | CHIKV mAb C9 (antibody) | -0.2 | 92.4 | 89.6 | 114 | 86.6 | 50.5 | 55.3 | 116 | 91.8 | 107 | 106 | 26.6 | 116 | 4.3 | 69.7 | 47 | 96 | 20.7 | 74 | 93.1 | Binding Reactivity (% WT) [21]: 81.4 % WT; Binding Reactivity (% WT) [22]: 0 % WT; Binding Reactivity (% WT) [23]: 88 % WT; Binding Reactivity (% WT) [24]: 34.4 % WT; Binding Reactivity (% WT) [25]: 15.4 % WT; Binding Reactivity (% WT) [26]: 18.7 % WT; Binding Reactivity (% WT) [27]: 109 % WT; Binding Reactivity (% WT) [28]: 84.1 % WT; Binding Reactivity (% WT) [29]: 87.2 % WT; Binding Reactivity (% WT) [30]: 71.8 % WT; Binding Reactivity (% WT) [31]: 84.7 % WT; Binding Reactivity (% WT) [32]: 39.6 % WT; Binding Reactivity (% WT) [33]: 86 % WT
